Reference: patent US20200024360A1 (Janssen / Centocor, published 2020)

Key:
[1] = molecular target: T1, human PSMA (prostate specific membrane antigen), full length (human, UniProt Q04609 1-750); experiment: flow cytometry, bispecific antibody titrated on LNCaP cells (human PSMA), anti-human kappa light chain PE
T1 construct: On LNCaP or C4-2B cells (endogenous) or transduced HEK293F cells; also called FOLH1_HUMAN; hPSMA
Method: (§1) PSMA×CD3 bispecific antibodies were tested for binding to PSMA positive cell lines LNCAP, human PSMA-HEK, Chimpanzee-PSMA-HEK and Cynomolgous monkey PSMA-HEK. To assess the binding capabilities of the PSMA bispecific antibodies, the cell-binding assay was utilized (described previously). Briefly, PSMA expressing tumor cells are bound by bispecific antibodies at known concentrations and the bound antibody is detected by an anti-human kappa light chain PE conjugated detection reagent (Invitrogen). The Mean Fluorescents Intensity (MFI) is the measure of bound bispecific antibody. The MFI is converted to a relative EC₅₀. EC₅₀ is a commonly used dose-response curve, where the half maximal effective concentration or the EC₅₀ point is defined as the inflection point of the curve. EC₅₀ s were determined by measuring cell bound bispecific and known concentrations. […] The dose response curves were then diluted down to that of background or no bispecific binding. The inflection point of this curve reflects the EC₅₀ point. The calculated EC₅₀ is determined by taking the ug/ml amount of bispecific antibody at the EC₅₀ point and converting it to a molarity value based on the MW of the bispecific antibody. Bispecific antibodies were normalized for protein concentration and then incubated with the same number of cells expressing either human or cyno PSMA. The MFI at each concentration was collected by flow cytometry and plotted as a function of concentration. Data was transformed via log 10 and then plotted. Nonlinear regression of binding curves was done to determine EC₅₀ s. These relative values were used for ranking PSMA binding to target cells.

[2] = molecular target: T2, chimpanzee PSMA, full length (Pan troglodytes, UniProt Q04609 1-750 (human entry)); experiment: FACS, whole cell binding, chimp PSMA HEK
T2 construct: On transfected HEK293F cells; also called chimp PSMA; H2Q3K5_PANTR
T2 chain: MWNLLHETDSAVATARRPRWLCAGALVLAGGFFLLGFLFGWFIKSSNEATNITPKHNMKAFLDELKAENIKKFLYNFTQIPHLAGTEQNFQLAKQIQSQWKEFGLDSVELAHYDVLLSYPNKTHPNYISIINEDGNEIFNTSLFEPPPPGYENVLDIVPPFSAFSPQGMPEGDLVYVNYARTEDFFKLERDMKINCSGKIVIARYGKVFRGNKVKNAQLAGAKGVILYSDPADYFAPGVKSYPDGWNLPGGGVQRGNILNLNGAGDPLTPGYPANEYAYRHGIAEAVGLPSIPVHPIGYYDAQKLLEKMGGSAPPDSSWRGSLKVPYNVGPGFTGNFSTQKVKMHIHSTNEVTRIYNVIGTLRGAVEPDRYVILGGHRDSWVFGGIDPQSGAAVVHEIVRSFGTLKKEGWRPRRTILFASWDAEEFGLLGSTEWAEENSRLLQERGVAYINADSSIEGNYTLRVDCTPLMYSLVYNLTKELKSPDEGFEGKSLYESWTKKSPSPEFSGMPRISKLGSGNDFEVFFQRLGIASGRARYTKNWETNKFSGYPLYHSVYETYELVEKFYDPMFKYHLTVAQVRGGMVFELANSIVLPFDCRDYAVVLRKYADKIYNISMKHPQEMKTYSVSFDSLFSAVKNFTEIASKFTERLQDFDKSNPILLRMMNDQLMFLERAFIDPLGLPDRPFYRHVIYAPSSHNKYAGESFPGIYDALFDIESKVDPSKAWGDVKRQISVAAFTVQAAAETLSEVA
Method: as §1

[3] = molecular target: T1, human PSMA (prostate specific membrane …); experiment: FACS, whole cell binding, LNCaP
Method: as §1

[4] = molecular target: T3, Cynomolgous monkey PSMA, full length (Macaca fascicularis, UniProt Q04609 1-750 (human entry)); experiment: FACS, whole cell binding, cyno PSMA HEK; calculated EC50
T3 construct: On transfected HEK293F cells; also called cyno PSMA; EHH56646.1
T3 chain: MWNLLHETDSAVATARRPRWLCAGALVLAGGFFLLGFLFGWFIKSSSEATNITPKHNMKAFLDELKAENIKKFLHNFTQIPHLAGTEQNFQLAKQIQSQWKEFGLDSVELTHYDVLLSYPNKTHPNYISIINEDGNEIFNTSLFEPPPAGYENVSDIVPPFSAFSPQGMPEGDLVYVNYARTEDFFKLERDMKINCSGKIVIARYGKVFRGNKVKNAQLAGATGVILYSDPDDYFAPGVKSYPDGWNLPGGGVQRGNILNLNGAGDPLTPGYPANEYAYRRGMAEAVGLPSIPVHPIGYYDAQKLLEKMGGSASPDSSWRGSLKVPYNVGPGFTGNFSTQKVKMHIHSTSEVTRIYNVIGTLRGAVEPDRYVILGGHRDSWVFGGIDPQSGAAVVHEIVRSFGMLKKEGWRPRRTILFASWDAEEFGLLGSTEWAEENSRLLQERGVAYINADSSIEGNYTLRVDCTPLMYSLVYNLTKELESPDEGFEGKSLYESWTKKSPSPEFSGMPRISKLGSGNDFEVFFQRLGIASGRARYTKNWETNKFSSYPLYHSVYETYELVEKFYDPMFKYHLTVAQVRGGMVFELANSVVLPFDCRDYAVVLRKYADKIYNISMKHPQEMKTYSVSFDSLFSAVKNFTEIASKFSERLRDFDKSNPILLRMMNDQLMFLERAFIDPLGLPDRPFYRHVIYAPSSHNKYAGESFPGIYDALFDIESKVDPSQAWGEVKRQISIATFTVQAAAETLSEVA
Method: as §1

[5] = molecular target: T2, chimpanzee PSMA, full length; experiment: FACS, whole cell binding, chimp PSMA HEK; calculated EC50
Method: as §1

[6] = molecular target: T1, human PSMA (prostate specific membrane …); experiment: FACS, whole cell binding, LNCaP; calculated EC50
Method: as §1

[7] = molecular target: T3, Cynomolgous monkey PSMA, full length; experiment: FACS, whole cell binding, cyno PSMA HEK
Method: as §1

B1: PS3B9 (M84) (bispecific antibody, human IgG4 S228P, kappa, lambda, F234A L235A)
heavy chain, PSMA arm (PSMB127): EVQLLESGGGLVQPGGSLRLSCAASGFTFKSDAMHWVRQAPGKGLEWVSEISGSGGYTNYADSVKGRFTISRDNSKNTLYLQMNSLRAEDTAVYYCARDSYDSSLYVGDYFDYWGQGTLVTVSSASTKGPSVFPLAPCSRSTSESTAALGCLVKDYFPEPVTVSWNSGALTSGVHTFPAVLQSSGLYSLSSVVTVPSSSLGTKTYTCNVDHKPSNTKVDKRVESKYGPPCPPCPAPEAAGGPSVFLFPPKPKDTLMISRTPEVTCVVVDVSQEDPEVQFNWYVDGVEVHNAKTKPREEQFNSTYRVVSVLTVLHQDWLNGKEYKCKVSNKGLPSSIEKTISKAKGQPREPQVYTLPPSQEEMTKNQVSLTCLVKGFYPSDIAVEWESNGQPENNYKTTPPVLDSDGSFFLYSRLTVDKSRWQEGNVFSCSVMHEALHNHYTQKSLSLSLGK
light chain, PSMA arm (PSMB127): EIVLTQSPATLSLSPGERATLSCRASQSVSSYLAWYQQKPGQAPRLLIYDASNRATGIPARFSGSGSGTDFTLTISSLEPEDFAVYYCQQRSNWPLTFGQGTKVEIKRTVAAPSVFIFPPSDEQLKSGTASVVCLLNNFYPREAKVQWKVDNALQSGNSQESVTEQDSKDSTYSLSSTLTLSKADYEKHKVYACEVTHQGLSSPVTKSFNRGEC
heavy chain, CD3 arm (CD3B217): EVQLLESGGGLVQPGGSLRLSCAASGFTFNTYAMNWVRQAPGKGLEWVARIRSKYNNYATYYADSVKGRFTISRDNSKNTLYLQMNSLRAEDTAVYYCVKHGNFGNSYVSWFAYWGQGTLVTVSSASTKGPSVFPLAPCSRSTSESTAALGCLVKDYFPEPVTVSWNSGALTSGVHTFPAVLQSSGLYSLSSVVTVPSSSLGTKTYTCNVDHKPSNTKVDKRVESKYGPPCPPCPAPEAAGGPSVFLFPPKPKDTLMISRTPEVTCVVVDVSQEDPEVQFNWYVDGVEVHNAKTKPREEQFNSTYRVVSVLTVLHQDWLNGKEYKCKVSNKGLPSSIEKTISKAKGQPREPQVYTLPPSQEEMTKNQVSLTCLVKGFYPSDIAVEWESNGQPENNYKTTPPVLDSDGSFLLYSKLTVDKSRWQEGNVFSCSVMHEALHNHYTQKSLSLSLGK
light chain, CD3 arm (CD3B217): QAVVTQEPSLTVSPGGTVTLTCRSSTGAVTTSNYANWVQQKPGQAPRGLIGGTNKRAPGTPARFSGSLLGGKAALTLSGAQPEDEAEYYCALWYSNLWVFGGGTKLTVLGQPKAAPSVTLFPPSSEELQANKATLVCLISDFYPGAVTVAWKADSSPVKAGVETTTPSKQSNNKYAASSYLSLTPEQWKSHRSYSCQVTHEGSTVEKTVAPTECS
notes: also called PSMB127 x CD3B217
- EC50 (read off the curve) [1]: ~2 µg/mL

B2: PS3B4 (M52) (bispecific antibody, human IgG4 S228P, kappa, lambda, F234A L235A)
heavy chain, PSMA arm (PSMB122): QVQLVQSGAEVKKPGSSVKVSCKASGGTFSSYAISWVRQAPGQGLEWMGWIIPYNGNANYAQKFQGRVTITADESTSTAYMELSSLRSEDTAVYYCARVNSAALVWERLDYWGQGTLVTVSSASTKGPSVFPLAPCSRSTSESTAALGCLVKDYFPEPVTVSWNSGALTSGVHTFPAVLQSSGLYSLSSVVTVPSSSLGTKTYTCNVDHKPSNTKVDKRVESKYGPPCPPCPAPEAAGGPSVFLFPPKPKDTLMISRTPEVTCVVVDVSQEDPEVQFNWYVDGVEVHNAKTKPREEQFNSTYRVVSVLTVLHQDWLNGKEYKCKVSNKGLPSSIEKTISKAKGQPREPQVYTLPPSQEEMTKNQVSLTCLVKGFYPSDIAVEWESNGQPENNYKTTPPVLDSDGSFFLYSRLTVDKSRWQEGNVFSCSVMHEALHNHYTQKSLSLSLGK
light chain, PSMA arm (PSMB122): DIQMTQSPSSLSASVGDRVTITCRASQSIDRWLNWYQQKPGKAPKLLIYAASSLQSGVPSRFSGSGSGTDFTLTISSLQPEDFATYYCQQSPRYPLTFGQGTKVEIKRTVAAPSVFIFPPSDEQLKSGTASVVCLLNNFYPREAKVQWKVDNALQSGNSQESVTEQDSKDSTYSLSSTLTLSKADYEKHKVYACEVTHQGLSSPVTKSFNRGEC
heavy chain, CD3 arm (CD3B217): EVQLLESGGGLVQPGGSLRLSCAASGFTFNTYAMNWVRQAPGKGLEWVARIRSKYNNYATYYADSVKGRFTISRDNSKNTLYLQMNSLRAEDTAVYYCVKHGNFGNSYVSWFAYWGQGTLVTVSSASTKGPSVFPLAPCSRSTSESTAALGCLVKDYFPEPVTVSWNSGALTSGVHTFPAVLQSSGLYSLSSVVTVPSSSLGTKTYTCNVDHKPSNTKVDKRVESKYGPPCPPCPAPEAAGGPSVFLFPPKPKDTLMISRTPEVTCVVVDVSQEDPEVQFNWYVDGVEVHNAKTKPREEQFNSTYRVVSVLTVLHQDWLNGKEYKCKVSNKGLPSSIEKTISKAKGQPREPQVYTLPPSQEEMTKNQVSLTCLVKGFYPSDIAVEWESNGQPENNYKTTPPVLDSDGSFLLYSKLTVDKSRWQEGNVFSCSVMHEALHNHYTQKSLSLSLGK
light chain, CD3 arm (CD3B217): QAVVTQEPSLTVSPGGTVTLTCRSSTGAVTTSNYANWVQQKPGQAPRGLIGGTNKRAPGTPARFSGSLLGGKAALTLSGAQPEDEAEYYCALWYSNLWVFGGGTKLTVLGQPKAAPSVTLFPPSSEELQANKATLVCLISDFYPGAVTVAWKADSSPVKAGVETTTPSKQSNNKYAASSYLSLTPEQWKSHRSYSCQVTHEGSTVEKTVAPTECS
notes: also called PSMB122 x CD3B217
- EC50 (read off the curve) [1]: ~2 µg/mL

B3: PS3B26 (bispecific antibody, human IgG4 S228P, kappa, lambda, F234A L235A)
heavy 1: not shown
light 1: not shown
heavy 2: EVQLVESGGGLVQPGGSLRLSCAASGFTFNTYAMNWVRQAPGKGLEWVARIRSKYNNYATYYAASVKGRFTISRDDSKNSLYLQMNSLKTEDTAVYYCARHGNFGNSYVSWFAYWGQGTLVTVSSASTKGPSVFPLAPCSRSTSESTAALGCLVKDYFPEPVTVSWNSGALTSGVHTFPAVLQSSGLYSLSSVVTVPSSSLGTKTYTCNVDHKPSNTKVDKRVESKYGPPCPPCPAPEAAGGPSVFLFPPKPKDTLMISRTPEVTCVVVDVSQEDPEVQFNWYVDGVEVHNAKTKPREEQFNSTYRVVSVLTVLHQDWLNGKEYKCKVSNKGLPSSIEKTISKAKGQPREPQVYTLPPSQEEMTKNQVSLTCLVKGFYPSDIAVEWESNGQPENNYKTTPPVLDSDGSFLLYSKLTVDKSRWQEGNVFSCSVMHEALHNHYTQKSLSLSLGK
light 2: QTVVTQEPSLTVSPGGTVTLTCRSSTGAVTTSNYANWVQQKPGQAPRGLIGGTNKRAPGTPARFSGSLLGGKAALTLSGVQPEDEAEYYCALWYSNLWVFGGGTKLTVLGQPKAAPSVTLFPPSSEELQANKATLVCLISDFYPGAVTVAWKADSSPVKAGVETTTPSKQSNNKYAASSYLSLTPEQWKSHRSYSCQVTHEGSTVEKTVAPTECS
notes: IgG4 PAA; PSMA arm chains first, then CD3 arm (F405L, R409K); also called PSMB126 x CD3B219
- EC50 [2]: 0.05 µg/mL
- EC50 [3]: 0.0715 µg/mL
- EC50 [4]: 2.6 nM
- EC50 [5]: 0.34 nM
- EC50 [6]: 0.5 nM
- EC50 [7]: 0.371 µg/mL

B4: PS3B8 (M81) (bispecific antibody, human IgG4 S228P, kappa, lambda, F234A L235A)
heavy chain, PSMA arm (PSMB126): not shown
light chain, PSMA arm (PSMB126): not shown
heavy chain, CD3 arm (CD3B217): EVQLLESGGGLVQPGGSLRLSCAASGFTFNTYAMNWVRQAPGKGLEWVARIRSKYNNYATYYADSVKGRFTISRDNSKNTLYLQMNSLRAEDTAVYYCVKHGNFGNSYVSWFAYWGQGTLVTVSSASTKGPSVFPLAPCSRSTSESTAALGCLVKDYFPEPVTVSWNSGALTSGVHTFPAVLQSSGLYSLSSVVTVPSSSLGTKTYTCNVDHKPSNTKVDKRVESKYGPPCPPCPAPEAAGGPSVFLFPPKPKDTLMISRTPEVTCVVVDVSQEDPEVQFNWYVDGVEVHNAKTKPREEQFNSTYRVVSVLTVLHQDWLNGKEYKCKVSNKGLPSSIEKTISKAKGQPREPQVYTLPPSQEEMTKNQVSLTCLVKGFYPSDIAVEWESNGQPENNYKTTPPVLDSDGSFLLYSKLTVDKSRWQEGNVFSCSVMHEALHNHYTQKSLSLSLGK
light chain, CD3 arm (CD3B217): QAVVTQEPSLTVSPGGTVTLTCRSSTGAVTTSNYANWVQQKPGQAPRGLIGGTNKRAPGTPARFSGSLLGGKAALTLSGAQPEDEAEYYCALWYSNLWVFGGGTKLTVLGQPKAAPSVTLFPPSSEELQANKATLVCLISDFYPGAVTVAWKADSSPVKAGVETTTPSKQSNNKYAASSYLSLTPEQWKSHRSYSCQVTHEGSTVEKTVAPTECS
notes: also called PSMB126 x CD3B217
- EC50 (read off the curve) [1]: ~0.1 µg/mL
